# B1: GpH7-A5/GpH7-B3 variant Y296_09D/GpL16-k0 (antibody, human IgG1, kappa)
# heavy 1: not shown
# heavy 2: not shown
# light: DIVMTQSPLSLPVTPGEPASISCQASESLVHSNRNTYLHWYLQKPGQSPQLLIYKVSNRFSGVPDRFSGSGSGTDFTLKISRVEAEDVGVYYCSQNTHVPPTFGQGTKVEIERTVAAPSVFIFPPSDEQLKSGTASVVCLLNNFYPREAKVQWKVDNALQSGNSQESVTEQDSKDSTYSLSSTLTLSKADYEKHKVYACEVTHQGLSSPVTKSFNRGEC
# notes: heterodimerized IgG1, mutation in one H chain only; also called He Ab
# B2: GpH7-A5/GpH7-B3 variant N325_04F/GpL16-k0 (antibody, human IgG1, kappa)
# heavy 1: not shown
# heavy 2: not shown
# light: B1 light
# notes: mutation in the GpH7-B3 chain only; also called He Ab
# B3: GpH7-A5/GpH7-B3 variant L328_10E/GpL16-k0 (antibody, human IgG1, kappa)
# heavy 1: not shown
# heavy 2: not shown
# light: B1 light
# notes: as for B2
# B4: GpH7-A5/GpH7-B3 variant Y296_16H/GpL16-k0 (antibody, human IgG1, kappa)
# heavy 1: not shown
# heavy 2: not shown
# light: B1 light
# notes: as for B1
# B5: GpH7-A5/GpH7-B3 variant P331_04F/GpL16-k0 (antibody, human IgG1, kappa)
# heavy 1: not shown
# heavy 2: not shown
# light: B1 light
# notes: as for B2
# B6: GpH7-A5/GpH7-B3 variant S267_11K/GpL16-k0 (antibody, human IgG1, kappa)
# heavy 1: not shown
# heavy 2: not shown
# light: B1 light
# notes: He Ab; alteration in one H chain only; also called He Ab
# B7: GpH7-A5/GpH7-B3 variant L328_03V/GpL16-k0 (antibody, human IgG1, kappa)
# heavy 1: not shown
# heavy 2: not shown
# light: B1 light
# notes: as for B2
# B8: GpH7-A5/GpH7-B3 variant L328_15Y/GpL16-k0 (antibody, human IgG1, kappa)
# heavy 1: not shown
# heavy 2: not shown
# light: B1 light
# notes: as for B2
# B9: GpH7-A5/GpH7-B3 variant N325_13S/GpL16-k0 (antibody, human IgG1, kappa)
# heavy 1: not shown
# heavy 2: not shown
# light: B1 light
# notes: as for B2
# B10: GpH7-A5/GpH7-B3 variant Y300_18N/GpL16-k0 (antibody, human IgG1, kappa)
# heavy 1: not shown
# heavy 2: not shown
# light: B1 light
# notes: as for B1
# B11: GpH7-A5/GpH7-B3 variant L328_06M/GpL16-k0 (antibody, human IgG1, kappa)
# heavy 1: not shown
# heavy 2: not shown
# light: B1 light
# notes: as for B2
# B12: GpH7-A5/GpH7-B3 variant N325_03V/GpL16-k0 (antibody, human IgG1, kappa)
# heavy 1: not shown
# heavy 2: not shown
# light: B1 light
# notes: as for B2
# B13: GpH7-A5/GpH7-B3 variant L328_20W/GpL16-k0 (antibody, human IgG1, kappa)
# heavy 1: not shown
# heavy 2: not shown
# light: B1 light
# notes: as for B2
# B14: GpH7-A5/GpH7-B3 variant P331_03V/GpL16-k0 (antibody, human IgG1, kappa)
# heavy 1: not shown
# heavy 2: not shown
# light: B1 light
# notes: as for B2
# B15: GpH7-A5/GpH7-B3 variant A327_18N/GpL16-k0 (antibody, human IgG1, kappa)
# heavy 1: not shown
# heavy 2: not shown
# light: B1 light
# notes: as for B2
# B16: GpH7-A5/GpH7-B3 variant L328_02A/GpL16-k0 (antibody, human IgG1, kappa)
# heavy 1: not shown
# heavy 2: not shown
# light: B1 light
# notes: as for B2
# B17: GpH7-A5/GpH7-B3 variant L328_13S/GpL16-k0 (antibody, human IgG1, kappa)
# heavy 1: not shown
# heavy 2: not shown
# light: B1 light
# notes: as for B2
# B18: GpH7-A5/GpH7-B3 variant L328_14T/GpL16-k0 (antibody, human IgG1, kappa)
# heavy 1: not shown
# heavy 2: not shown
# light: B1 light
# notes: as for B2
# B19: GpH7-A5/GpH7-B3 variant Y296_14T/GpL16-k0 (antibody, human IgG1, kappa)
# heavy 1: not shown
# heavy 2: not shown
# light: B1 light
# notes: as for B1
# B20: GpH7-A5/GpH7-B3 variant Y296_10E/GpL16-k0 (antibody, human IgG1, kappa)
# heavy 1: not shown
# heavy 2: not shown
# light: B1 light
# notes: as for B1
# Assays:
# [1] = molecular target: T1, FcγRIIa R (FcγRIIa allotype with Arg at position 131), extracellular domain with C-terminal His tag (human, UniProt P12318 34-217); experiment: SPR (Biacore), antibody captured, FcγR analyte; vs GpH7-A5/GpH7-B3/GpL16-k0 = 100
# T1 construct: extracellular domain; made in FreeStyle293 cells; analyte in the Biacore assay; also called FcγRIIa type R; 2aR
# T1 sequence (looked up): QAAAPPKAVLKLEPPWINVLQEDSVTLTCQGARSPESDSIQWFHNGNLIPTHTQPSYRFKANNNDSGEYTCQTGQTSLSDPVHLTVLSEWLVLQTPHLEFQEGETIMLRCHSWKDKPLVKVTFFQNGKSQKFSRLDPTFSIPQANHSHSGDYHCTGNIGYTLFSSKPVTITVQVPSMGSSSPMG
# Procedure: (§1) The heterodimerized antibodies He Abs in which one of the H chains was introduced with an alteration were assayed for their binding activities to each activating FcγR and inhibitory FcγR according to the method described in Example 4. […] The activating FcγRs in FIGS. 26, 27, 28, and 29 are FcγRIa, FcγRIIa (R), FcγRIIa (H), and FcγRIIIa, respectively.
# (§2) Analysis of interaction between objective antibody and the FcγR was carried out using Biacore T100 (GE Healthcare). HBS-EP+ (GE Healthcare) was used as the running buffer, and the measurement temperature was set to 25° C. Chips produced by immobilizing the antigen peptide by the amine coupling method to a Series S Sencor Chip CM5 (GE Healthcare), or alternatively, chips produced by allowing preliminarily biotinylated antigen peptides to interact with and immobilize onto a Series S Sensor Chip SA (certified) (GE Healthcare) were used. Antibodies of interest were captured onto an antigen peptide-immobilized chip, and allowed to interact to each FcγR diluted with running buffer. To regenerate and repeatedly use the chip, the antibodies captured on the chip were washed off by reacting 10 mM glycine-HCl, pH 1.5.
# [2] = molecular target: T2, FcγRIIb, extracellular domain with C-terminal His tag (human, UniProt P31994 43-217); experiment: as above
# T2 construct: extracellular domain; made in FreeStyle293 cells; analyte in the Biacore assay; also called 2b; FcgRIIb
# T2 sequence (looked up): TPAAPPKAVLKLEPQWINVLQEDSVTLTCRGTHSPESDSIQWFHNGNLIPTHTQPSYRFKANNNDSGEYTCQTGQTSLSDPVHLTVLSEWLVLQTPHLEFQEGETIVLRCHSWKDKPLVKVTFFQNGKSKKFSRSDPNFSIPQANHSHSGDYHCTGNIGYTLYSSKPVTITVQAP
# Procedure: as §1, §2
# [3] = molecular target: T3, FcγRIIb (human, UniProt P31994 43-217); experiment: SPR (Biacore), relative binding
# T3 construct: extracellular domain; also called FcgRIIb; 2b
# T3 sequence (looked up): T2 sequence (looked up)
# [4] = molecular target: T4, FcγRIIIa (human, UniProt P08637 17-208); experiment: SPR (Biacore), relative binding
# T4 construct: extracellular domain; also called FcgRIIIa; 3a
# [5] = molecular target: T5, FcγRIIb, extracellular domain with C-terminal His tag (human, UniProt P31994 43-217); experiment: SPR (Biacore), relative binding, GpH7-A5/GpH7-B3/GpL16-k0 = 100
# T5 construct: extracellular domain; also called 2b; FcgRIIb; not shown: His tag at the C terminus
# T5 sequence (looked up): T2 sequence (looked up)
# T4 sequence (P08637 17-208): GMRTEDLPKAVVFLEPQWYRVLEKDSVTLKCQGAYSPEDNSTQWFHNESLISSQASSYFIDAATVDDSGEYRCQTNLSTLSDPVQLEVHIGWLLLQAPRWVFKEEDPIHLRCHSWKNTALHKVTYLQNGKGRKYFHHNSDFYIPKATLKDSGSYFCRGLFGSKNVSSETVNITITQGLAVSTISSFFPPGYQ
Binder,He/Con_2aR [1],He/Con_2b [2],He/Con_2b [3],He/Con_3a [4],He/Con_2b [5]
B1,106 relative (HeCon Ab = 100),98.9 relative (HeCon Ab = 100),–,–,–
B2,–,–,143 % of GpH7-A5/GpH7-B3/GpL16-k0,20.7 % of GpH7-A5/GpH7-B3/GpL16-k0,–
B3,–,–,172 % of GpH7-A5/GpH7-B3/GpL16-k0,53.4 % of GpH7-A5/GpH7-B3/GpL16-k0,–
B4,105 relative (HeCon Ab = 100),92.2 relative (HeCon Ab = 100),–,–,–
B5,–,–,110 % of GpH7-A5/GpH7-B3/GpL16-k0,77.3 % of GpH7-A5/GpH7-B3/GpL16-k0,–
B6,–,–,–,–,12.2 % of control
B7,–,–,126 % of GpH7-A5/GpH7-B3/GpL16-k0,78.7 % of GpH7-A5/GpH7-B3/GpL16-k0,–
B8,–,–,193 % of GpH7-A5/GpH7-B3/GpL16-k0,68.3 % of GpH7-A5/GpH7-B3/GpL16-k0,–
B9,–,–,177 % of GpH7-A5/GpH7-B3/GpL16-k0,65.1 % of GpH7-A5/GpH7-B3/GpL16-k0,–
B10,100 relative (HeCon Ab = 100),82.7 relative (HeCon Ab = 100),–,–,–
B11,–,–,142 % of GpH7-A5/GpH7-B3/GpL16-k0,78.6 % of GpH7-A5/GpH7-B3/GpL16-k0,–
B12,–,–,111 % of GpH7-A5/GpH7-B3/GpL16-k0,30.3 % of GpH7-A5/GpH7-B3/GpL16-k0,–
B13,–,–,235 % of GpH7-A5/GpH7-B3/GpL16-k0,37.4 % of GpH7-A5/GpH7-B3/GpL16-k0,–
B14,–,–,119 % of GpH7-A5/GpH7-B3/GpL16-k0,73.2 % of GpH7-A5/GpH7-B3/GpL16-k0,–
B15,–,–,113 % of GpH7-A5/GpH7-B3/GpL16-k0,61.1 % of GpH7-A5/GpH7-B3/GpL16-k0,–
B16,–,–,144 % of GpH7-A5/GpH7-B3/GpL16-k0,79.1 % of GpH7-A5/GpH7-B3/GpL16-k0,–
B17,–,–,149 % of GpH7-A5/GpH7-B3/GpL16-k0,71.7 % of GpH7-A5/GpH7-B3/GpL16-k0,–
B18,–,–,141 % of GpH7-A5/GpH7-B3/GpL16-k0,75.3 % of GpH7-A5/GpH7-B3/GpL16-k0,–
B19,103 relative (HeCon Ab = 100),88.2 relative (HeCon Ab = 100),–,–,–
B20,103 relative (HeCon Ab = 100),98 relative (HeCon Ab = 100),–,–,–

# Source: US20150344570A1 (published 2015)
